Laboratory results from paper PMC8266564.

Target: T1, GFP-dRNH1 (catalytically inactive RNase H1) (Homo sapiens, UniProt O60930 28-286, D210N)
T1 sequence: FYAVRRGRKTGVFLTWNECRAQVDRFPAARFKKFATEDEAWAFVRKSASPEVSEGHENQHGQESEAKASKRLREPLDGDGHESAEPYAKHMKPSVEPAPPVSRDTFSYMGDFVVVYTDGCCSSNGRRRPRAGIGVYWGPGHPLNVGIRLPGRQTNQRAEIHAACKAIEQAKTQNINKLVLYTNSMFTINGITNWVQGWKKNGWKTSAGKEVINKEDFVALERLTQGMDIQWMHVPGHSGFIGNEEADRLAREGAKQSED
Test: EMSA

B1: 60-bp RNA-DNA hybrid (RNA60/DNA60) (DNA:RNA)
RNA: GUUGUAACGACGGCCAGUGCCAAGUUCGGAUCGACGCUCGACUCUAGAGGAUCCCGGUAC
DNA: GTACCGGGATCCTCTAGAGTCGAGCGTCGATCCGAACTTGGCACTGGCCGTCGTTACAAC
binding result: binds
